Measured values as given in patent CN113484526A (SHANGHAI MABGEN MEDICINE TECH CO LTD, dated 2021).
Values belong to the molecule of their own block, whether it stands above or below them.

Key:
[1] = target: Human FcRn Protein, His Tag (ACRO Biosystems, Cat.No.FCN-H52W7) (human) (UniProt P55899); experiment: competition ELISA against Biotin-IgG on FcRn-His, relative to the reference antibody (SEQ ID NO: 180/181)
[2] = target: T1, 人FcRn胞外区-β2M复合物(带His标签的重组蛋白) (human, UniProt P61769 21-119); experiment: hybridoma screening: binding ELISA, cell binding and cell blocking
T1 construct: also called FcRn抗原; 人FcRn-β2M复合物; not shown: His tag

生物学活性(相对参考品) [1]: 0%
Molecule: 不针对FcRn靶点的无关抗体(IgG4亚型，迈晋生物自制) (antibody)

binding result [2]: binds
B1: hybri11 (antibody, V domains shown)
VH: QVQLQQPGAELVKPGASVKVSCKASGSTFTSYYMHWVKQRPGQGLEWIGRIHPSNSDSNYNQKFKGKATLTVDKSSSTAYMQLSSLTSEDSAVYYCAMKRDGYYEGFPHWGQGTLVTVSA
VL: DIQMTQSPASQSASLGESVTITCLASQTIGTWLAWYQQKPGKSPQLLIYAATSLADGVPSRFSGSRSGTKFSFKISSLQAEDFVSYYCQQLYSTPYTFGGGTKLEIK
notes: Mouse hybridoma antibody; tested as hybridoma supernatant/purified antibody; also called 阳性克隆hybri11
